Target: HH-120 (IgM-like hACE2-Fc fusion protein) (UniProt Q9BYF1)
Assay: SPR

Question: Which Kd does the source give for “S trimer protein of the SARS-CoV-2 Beta variant (from UniProt P0DTC2) (natural protein)” here?
Answer: The Kd was 1 nM.

Question: For “S trimer protein of the SARS-CoV-2 Delta variant (from UniProt P0DTC2) (natural protein)”, which Kd is on record?
Answer: The Kd was 1 nM.

Question: Which Kd does the source give for “S trimer protein of the SARS-CoV-2 Omicron variant (from UniProt P0DTC2) (natural protein)” here?
Answer: Its Kd is 1 nM.

Question: “S trimer protein of the SARS-CoV-2 Alpha variant (from UniProt P0DTC2) (natural protein)” was tested. Which Kd did it give?
Answer: Its Kd is 1 nM.

Source: paper PMC10457309
